From patent publication US10350168B2, “Dermal delivery compositions comprising active agent-calcium phosphate particle complexes and methods of using the same” (Laboratory Skin Care, Inc., priority 2009, dated 2019)

Test: Lactoferrin binding to calcium phosphate particles (UV 280 nm)
Format: physicochemical
Conditions: binding concentration of 2.99 mg/ml
Description: • Calcium phosphate particles • Lactoferrin from human milk, Sigma Aldrich, Catalog No. 0520-100MG Methods: • i. Lactoferrin solution was prepared in water at 4.98 mg/ml. • ii. 0.3 g of Calcium phosphate particles was suspended in 1.2 ml of water and mixed for 5 min. • iii. 1.8 ml of Lactoferrin solution at 4.98 mg/ml was added to achieve the final concentrations at 3.0 mg/ml, and the final volume was 3 ml. • iv. The suspension was mixed for 30 min, and centrifuged at 5000×g for 10 min in a bench top centrifuge. • v. The absorbance of supernatant was measured at 280 nm (the detection wavelength for Lactoferrin) by UV spectrophotometer. • vi. […] Lactoferrin bound was calculated by subtracting the amount of the Lactoferrin detected in the supernatant from the total initial amount in the binding suspension.

B1: Lactoferrin: Lactoferrin from human milk, Sigma Aldrich (protein, UniProt P02788 20-710, looked up)
Lactotransferrin: GRRRSVQWCAVSQPEATKCFQWQRNMRKVRGPPVSCIKRDSPIQCIQAIAENRADAVTLDGGFIYEAGLAPYKLRPVAAEVYGTERQPRTHYYAVAVVKKGGSFQLNELQGLKSCHTGLRRTAGWNVPIGTLRPFLNWTGPPEPIEAAVARFFSASCVPGADKGQFPNLCRLCAGTGENKCAFSSQEPYFSYSGAFKCLRDGAGDVAFIRESTVFEDLSDEAERDEYELLCPDNTRKPVDKFKDCHLARVPSHAVVARSVNGKEDAIWNLLRQAQEKFGKDKSPKFQLFGSPSGQKDLLFKDSAIGFSRVPPRIDSGLYLGSGYFTAIQNLRKSEEEVAARRARVVWCAVGEQELRKCNQWSGLSEGSVTCSSASTTEDCIALVLKGEADAMSLDGGYVYTAGKCGLVPVLAENYKSQQSSDPDPNCVDRPVEGYLAVAVVRRSDTSLTWNSVKGKKSCHTAVDRTAGWNIPMGLLFNQTGSCKFDEYFSQSCAPGSDPRSNLCALCIGDEQGENKCVPNSNERYYGYTGAFRCLAENAGDVAFVKDVTVLQNTDGNNNEAWAKDLKLADFALLCLDGKRKPVTEARSCHLAMAPNHAVVSRMDKVERLKQVLLHQQAKFGRNGSDCPDKFCLFQSETKNLLFNDNTECLARLHGKTTYEKYLGPQYVAGITNLKKCSTSPLLEACEFLRK
Lactoferrin bound to calcium phosphate particles: 29.63 mg/g
